Reference: patent US8226943B2, “Antibodies to notch receptors” (OncoMed Pharmaceuticals, Inc., priority 2008, dated 2012)
Read-outs that look alike come from different tables or passages of the source.

Experiments:
human Notch1 = target: T1, human Notch1 (Homo sapiens, UniProt P46531); assay: FACS binding to transiently transfected HEK-293 cells, human Notch1
T1 construct: expressed in transfected cells; host or cells: HEK-293, transient, co-transfected with GFP
Protocol: The ability of the 59R1 IgG2 antibody to cross-react with other Notch receptors was determined by FACS assay using HEK-293 cells transiently transfected with the human Notch1, Notch2, Notch3 or Notch4 expression plasmid and green fluorescent protein (GFP) as a transfection control. GFP positive cells indicated expression of the transgene. The 59R1 IgG2 was added to the cells at 2 μg/ml and detected by PE-conjugated goat anti-human Fc gamma specific (Jackson Immunochemicals). All Notch constructs were full length.
The binding epitope of 59R5 was determined. As was described in Example 3 for analysis of antibody 59R1, several point mutants were created within full-length Notch1, converting residues within EGF10 to the corresponding amino acids in human Notch 2. Mutants in full-length Notch sequences were generated by QuikChange® mutagenesis (Stratagene) and verified by sequencing. HEK 293 cells were transiently transfected with expression vectors encoding human Notch2, human Notch1, or human Notch1 with residues 382-386 mutated to the corresponding human Notch2 residues. Cells were also co-transfected with a plasmid encoding green fluorescent protein (GFP) to mark those cells that received transfected plasmid. […] 59R1 and 59R5 were detected by PE-conjugated goat anti-human Fc gamma specific antibody (Jackson Immunochemicals, #109-116-170). […]

[1] = system: PN8 pancreatic tumor cells; assay: PN8 pancreatic tumor xenograft growth; format: in vivo, NOD/SCID mice; conditions: for PN8 Tumor vol relative to the control group: combination with gemcitabine, control is gemcitabine alone, antibody 15 mg/kg once per week
Protocol: The 59R1 IgG2 antibody was also tested in vivo in the breast tumor xenograft lines OMP-B34, OMP-B39, OMP-B44, PE13, and UM-T1, the pancreas tumor xenograft line OMP-PN8, and the colon tumor xenograft line OMP-C8. These tumor xenograft lines were established by adhering to procedures described in Al-Hajj et al., 2003, Proc. Natl. Acad. Sci. USA, 100:3983-3988. Female NOD/SCID immuno-compromised mice 7-10 weeks old were used for the establishment of the breast tumor xenografts and male NOD/SCID mice were used for the OMP-Pn8 and OMP-C8 tumor-models (Harlan, Indianapolis, Ind.). The 59R1 IgG2 antibody was also tested in vivo in a Colo-205 colon tumor xenograft model. Female immunodeficient bg/nu XID mice on a Swiss CD-1 background were used for the Colo-205 xenograft tumor model. In case of the breast cancer models, slow-releasing estrogen pellets (0.36 mg) had to be implanted. Mice were subcutaneously injected on the right flank with 50,000 (OMP-B34, OMP-B39, OMP-B44, PE13, and UM-T1) or 1×10^7 (Colo-205) viable cells, respectively, in a mixture of PBS (without magnesium or calcium) and Matrigel at a 1:1 ratio. The injected total volume per mouse was 200 μl with 50% being Matrigel. Once the tumor had reached a size between 65-200 mm^3, the mice were randomized. Antibodies were administered weekly and tumors measured twice weekly. LZ1 (a human antibody that recognizes lyzozyme) or 1B711 (a murine IgG1 antibody that recognizes the hapten trinitrophenol) was used as a control antibody for treatment of each tumor type. Tumor volume was calculated as described Al-Hajj et al. (2003). Data are expressed as the mean and the mean±S.E.M. Group means were compared using Student's two-tailed, unpaired t-test. […] All statistical analysis was performed using Microsoft EXCEL and Graph Pad PRISM.
In one embodiment, NOD/SCID mice were injected with PN8 pancreatic tumor cells. The tumors were allowed to grow for approximately 33 days until they had reached an average tumor volume of 150 mm^3. The mice were treated with gemcitabine at 20 mg/kg once per week for four weeks in combination with control antibody, anti-Notch2/3 antibody 59R1, or anti-Notch2/3 antibody 59R5.
Tumor volumes and p values for each experiment are shown relative to the control group. The PE13, C28 and Colo205 studies were carried out as described in Example 14. PN8 studies were carried out as described above. For the PN8 experiment, the control is gemcitabine alone and values for 59R1 and 59R5 are the combinations with gemcitabine. Antibodies were dosed once per week at 15 mg/kg for all experiments.

[2] = system: breast tumor xenograft line OMP-B34; assay: OMP-B34 breast tumor xenograft growth; format: in vivo, NOD/SCID mice; conditions: established tumors, 15 mg/kg once a week
Protocol: The 59R1 IgG2 antibody was also tested in vivo in the breast tumor xenograft lines OMP-B34, OMP-B39, OMP-B44, PE13, and UM-T1, the pancreas tumor xenograft line OMP-PN8, and the colon tumor xenograft line OMP-C8. These tumor xenograft lines were established by adhering to procedures described in Al-Hajj et al., 2003, Proc. Natl. Acad. Sci. USA, 100:3983-3988. Female NOD/SCID immuno-compromised mice 7-10 weeks old were used for the establishment of the breast tumor xenografts and male NOD/SCID mice were used for the OMP-Pn8 and OMP-C8 tumor-models (Harlan, Indianapolis, Ind.). The 59R1 IgG2 antibody was also tested in vivo in a Colo-205 colon tumor xenograft model. Female immunodeficient bg/nu XID mice on a Swiss CD-1 background were used for the Colo-205 xenograft tumor model. In case of the breast cancer models, slow-releasing estrogen pellets (0.36 mg) had to be implanted. Mice were subcutaneously injected on the right flank with 50,000 (OMP-B34, OMP-B39, OMP-B44, PE13, and UM-T1) or 1×10^7 (Colo-205) viable cells, respectively, in a mixture of PBS (without magnesium or calcium) and Matrigel at a 1:1 ratio. […] Antibodies were administered weekly and tumors measured twice weekly. […] Tumor volume was calculated as described Al-Hajj et al. (2003). Data are expressed as the mean and the mean±S.E.M. Group means were compared using Student's two-tailed, unpaired t-test. […]

mNotch1 = target: T2, mNotch1 (Mus musculus, UniProt Q01705); assay: Biacore affinity, mouse Notch1; format: binding
T2 construct: recombinant human and mouse Notch proteins (EGF10-15 for Notch1, 2, & 4; EGF9-14 for Notch3) were immobilized on a CM5 chip
T2 sequence (Q01705 372-601 limits assumed): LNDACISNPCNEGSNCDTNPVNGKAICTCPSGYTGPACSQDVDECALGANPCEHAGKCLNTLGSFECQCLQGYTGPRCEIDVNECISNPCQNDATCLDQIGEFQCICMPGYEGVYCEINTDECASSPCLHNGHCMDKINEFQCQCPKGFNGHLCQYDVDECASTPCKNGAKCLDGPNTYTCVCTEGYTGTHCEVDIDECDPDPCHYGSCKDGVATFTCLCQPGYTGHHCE
Protocol: The affinities for human and mouse Notch1, Notch2, Notch3, and Notch4 were determined using a Biacore 2000 instrument. Briefly, recombinant human and mouse Notch proteins (EGF10-15 for Notch1, 2, & 4; EGF9-14 for Notch3) were immobilized on a CM5 chip using standard amine based chemistry (NHS/EDC). For hNotch2, EGF1-12 was also tested for binding. Different antibody concentrations (1-100 nM) were injected over the protein surfaces and kinetic data were collected over time. The data was fit using the simultaneous global fit equation to yield dissociation constants (KD, nM) for each Notch (Table 3).
The sequences of the heavy chain and light chain are provided in SEQ ID NO: 49 and SEQ ID NO:18, respectively. The heavy chain variable region is provided in SEQ ID NO:50 and the light chain variable region is provide SEQ ID NO:13. The heavy chain CDR3 sequence of 59R5 comprises SIFYTT, SEQ ID NO:51. The other CDR sequences of 59R5 are identical to 59R1. […] Both antibodies bind human and murine Notch2 and Notch3 receptors with sub-nanomolar affinity (see Table 6).

[3] = Table 6, Biacore, read-out: IgG Dissociation Constant (KD) m-Notch1

T1 sequence (P46531 19-2555): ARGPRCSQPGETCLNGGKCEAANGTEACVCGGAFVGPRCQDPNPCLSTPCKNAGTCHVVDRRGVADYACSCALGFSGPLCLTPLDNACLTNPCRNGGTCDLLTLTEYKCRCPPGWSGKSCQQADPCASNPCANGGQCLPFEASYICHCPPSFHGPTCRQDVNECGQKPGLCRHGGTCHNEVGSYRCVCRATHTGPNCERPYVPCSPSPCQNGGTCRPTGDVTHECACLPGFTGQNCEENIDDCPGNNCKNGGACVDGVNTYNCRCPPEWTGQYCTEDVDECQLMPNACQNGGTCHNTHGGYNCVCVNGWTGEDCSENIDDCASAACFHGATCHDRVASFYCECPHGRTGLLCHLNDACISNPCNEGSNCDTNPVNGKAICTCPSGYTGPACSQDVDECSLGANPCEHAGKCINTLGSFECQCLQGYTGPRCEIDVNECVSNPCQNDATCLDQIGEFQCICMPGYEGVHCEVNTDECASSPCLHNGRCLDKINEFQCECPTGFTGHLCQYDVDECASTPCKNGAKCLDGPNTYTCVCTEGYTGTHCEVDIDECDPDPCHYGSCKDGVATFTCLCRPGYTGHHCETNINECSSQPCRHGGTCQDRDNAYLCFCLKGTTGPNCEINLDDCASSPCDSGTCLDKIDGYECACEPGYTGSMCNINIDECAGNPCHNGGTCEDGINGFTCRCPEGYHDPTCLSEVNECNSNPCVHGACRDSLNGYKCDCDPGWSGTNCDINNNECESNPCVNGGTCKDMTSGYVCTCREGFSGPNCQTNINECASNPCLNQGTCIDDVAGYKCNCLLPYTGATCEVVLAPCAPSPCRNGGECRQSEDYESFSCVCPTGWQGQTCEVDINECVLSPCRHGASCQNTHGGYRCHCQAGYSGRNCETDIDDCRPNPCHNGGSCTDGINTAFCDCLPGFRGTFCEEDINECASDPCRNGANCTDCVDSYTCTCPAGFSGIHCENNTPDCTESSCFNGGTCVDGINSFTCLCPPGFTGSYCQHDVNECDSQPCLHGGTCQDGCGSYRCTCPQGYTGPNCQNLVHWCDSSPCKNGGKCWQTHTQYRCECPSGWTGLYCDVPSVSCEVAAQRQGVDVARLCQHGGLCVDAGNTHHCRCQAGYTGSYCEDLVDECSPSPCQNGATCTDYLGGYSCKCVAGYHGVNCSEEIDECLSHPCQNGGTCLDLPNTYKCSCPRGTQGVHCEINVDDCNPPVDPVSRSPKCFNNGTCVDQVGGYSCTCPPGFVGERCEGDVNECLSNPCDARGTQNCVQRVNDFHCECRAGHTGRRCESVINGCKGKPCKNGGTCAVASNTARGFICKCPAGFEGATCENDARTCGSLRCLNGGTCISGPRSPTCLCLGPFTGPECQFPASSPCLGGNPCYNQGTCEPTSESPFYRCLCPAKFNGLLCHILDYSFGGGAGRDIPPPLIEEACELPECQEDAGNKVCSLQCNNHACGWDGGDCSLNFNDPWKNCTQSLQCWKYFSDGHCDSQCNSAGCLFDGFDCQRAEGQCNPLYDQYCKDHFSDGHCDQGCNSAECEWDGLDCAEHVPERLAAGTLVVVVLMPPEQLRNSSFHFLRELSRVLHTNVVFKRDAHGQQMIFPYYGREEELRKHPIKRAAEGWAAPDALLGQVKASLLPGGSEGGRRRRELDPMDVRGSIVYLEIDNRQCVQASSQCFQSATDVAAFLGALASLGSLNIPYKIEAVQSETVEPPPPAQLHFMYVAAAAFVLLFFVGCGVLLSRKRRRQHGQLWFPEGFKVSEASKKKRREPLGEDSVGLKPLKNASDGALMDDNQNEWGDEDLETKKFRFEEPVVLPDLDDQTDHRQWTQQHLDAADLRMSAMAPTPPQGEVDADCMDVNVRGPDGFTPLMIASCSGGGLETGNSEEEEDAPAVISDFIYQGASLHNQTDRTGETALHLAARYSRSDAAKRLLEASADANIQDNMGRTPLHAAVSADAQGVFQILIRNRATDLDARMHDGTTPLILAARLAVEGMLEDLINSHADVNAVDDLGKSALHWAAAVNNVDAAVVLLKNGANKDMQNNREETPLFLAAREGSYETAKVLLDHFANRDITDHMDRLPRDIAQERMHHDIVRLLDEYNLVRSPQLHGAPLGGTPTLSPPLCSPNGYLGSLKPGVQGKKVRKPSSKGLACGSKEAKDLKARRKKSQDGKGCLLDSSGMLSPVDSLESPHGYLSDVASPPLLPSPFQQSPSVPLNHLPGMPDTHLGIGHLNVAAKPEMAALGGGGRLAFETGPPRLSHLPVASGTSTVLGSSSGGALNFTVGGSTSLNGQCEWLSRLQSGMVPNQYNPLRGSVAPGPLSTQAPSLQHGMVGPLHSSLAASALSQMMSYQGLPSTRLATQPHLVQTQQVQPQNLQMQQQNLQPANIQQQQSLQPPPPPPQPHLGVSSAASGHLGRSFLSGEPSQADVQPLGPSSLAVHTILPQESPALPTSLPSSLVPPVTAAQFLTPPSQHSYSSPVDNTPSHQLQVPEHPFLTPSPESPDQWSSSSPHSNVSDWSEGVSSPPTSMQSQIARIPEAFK

| binding to full-length human Notch1 (FACS) (human Notch1) | Kd (mNotch1; Table 3, Biacore, EGF10-15, read-out: Dissociation Constant (KD) mNotch1) [nM] | Kd (mNotch1; [3]) [nM] | Substance | PN8 Tumor vol relative to the control group [1] | PN8 pancreatic tumor growth relative to control antibody ([1]; established tumors, 15 mg/kg once a week) | B34 breast cancer growth relative to control antibody [2] | PN8 tumor growth, antibody in combination with gemcitabine ([1]; gemcitabine 20 mg/kg once per week for four weeks) |
| --- | --- | --- | --- | --- | --- | --- | --- |
| does not bind significantly | > 10 | > 10 | 59R1: human IgG2 antibody binding Notch2 and Notch3; heavy and light chain SEQ ID NO:16 and 18; ATCC PTA-9547 | 0.27 | inhibit pancreatic tumor growth | inhibit breast cancer growth |  |
| did not bind |  | > 10 | 59R5: human antibody that specifically binds human Notch 2 and human Notch 3; heavy and light chain SEQ ID NO:49 and 18; ATCC PTA-10170 | 0.11 |  |  | inhibited tumor growth at a similar level as antibody 59R1 |
